From publication PMC3572265 (Pediatric diabetes, 2012)

Tests used:
[1] = plasma insulin pharmacokinetics during euglycemic clamp; format: in vivo, human; details: Without InsuPatch activation, 0.2 unit/kg s.c. bolus, mean±SEM
[2] = tested on: adolescents with type 1 diabetes; assay: euglycemic clamp, pharmacodynamics; format: in vivo, human; details: difference with vs without InsuPatch activation; 0.2 u/kg bolus

Substance: aspart insulin
- time to reach maximum increments in plasma insulin [1]: 67 ± 10 min
- TGIRmax earlier with IP activation than without [2]: 35 min
